According to PMC8902471:
Positions count from the first letter of the chain named.

Columns and labels:
Experiment in all cases: EMSA
Ets-1 ΔN301 MT4 = target: T1, Ets-1 ΔN301 MT4 (Mus musculus (murine), UniProt P27577 301-440, W338A)
T1 sequence: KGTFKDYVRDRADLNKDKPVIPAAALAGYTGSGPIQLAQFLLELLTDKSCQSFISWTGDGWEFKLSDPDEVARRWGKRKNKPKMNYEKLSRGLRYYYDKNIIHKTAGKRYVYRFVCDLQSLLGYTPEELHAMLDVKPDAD

Ets-1 ΔN301 MT2 = target: T2, Ets-1 ΔN301 MT2 (Mus musculus (murine), UniProt P27577 301-440, L393A;Y396A)
T2 sequence: T1 sequence with A38W, L93A, Y96A

Ets-1 ΔN301 MT1 = target: T3, Ets-1 ΔN301 MT1 (Mus musculus (murine), UniProt P27577 301-440, L337A;W338A)
T3 sequence: T1 sequence with L37A

Ets-1 ΔN301 MT3 = target: T4, Ets-1 ΔN301 MT3 (Mus musculus (murine), UniProt P27577 301-440, L337A)
T4 sequence: T1 sequence with L37A, A38W

Measured: binding result

B1: 27-bp high-affinity ETS site DNA (dsDNA)
DNA 1: TCGACGGCCAAGCCGGAAGTGAGTGCC
DNA 2: TCGAGGCACTCACTTCCGGCTTGGCCG
no binding: all assays above
